Experimental data from FireProtDB (doi:10.1021/bi051692c).

B1: Band 3 anion transport protein, P02730 (parent)
chain: MEELQDDYEDMMEENLEQEEYEDPDIPESQMEEPAAHDTEATATDYHTTSHPGTHKVYVELQELVMDEKNQELRWMEAARWVQLEENLGENGAWGRPHLSHLTFWSLLELRRVFTKGTVLLDLQETSLAGVANQLLDRFIFEDQIRPQDREELLRALLLKHSHAGELEALGGVKPAVLTRSGDPSQPLLPQHSSLETQLFCEQGDGGTEGHSPSGILEKIPPDSEATLVLVGRADFLEQPVLGFVRLQEAAELEAVELPVPIRFLFVLLGPEAPHIDYTQLGRAAATLMSERVFRIDAYMAQSRGELLHSLEGFLDCSLVLPPTDAPSEQALLSLVPVQRELLRRRYQSSPAKPDSSFYKGLDLNGGPDDPLQQTGQLFGGLVRDIRRRYPYYLSDITDAFSPQVLAAVIFIYFAALSPAITFGGLLGEKTRNQMGVSELLISTAVQGILFALLGAQPLLVVGFSGPLLVFEEAFFSFCETNGLEYIVGRVWIGFWLILLVVLVVAFEGSFLVRFISRYTQEIFSFLISLIFIYETFSKLIKIFQDHPLQKTYNYNVLMVPKPQGPLPNTALLSLVLMAGTFFFAMMLRKFKNSSYFPGKLRRVIGDFGVPISILIMVLVDFFIQDTYTQKLSVPDGFKVSNSSARGWVIHPLGLRSEFPIWMMFASALPALLVFILIFLESQITTLIVSKPERKMVKGSGFHLDLLLVVGMGGVAALFGMPWLSATTVRSVTHANALTVMGKASTPGAAAQIQEVKEQRISGLLVAVLVGLSILMEPILSRIPLAVLFGIFLYMGVTSLSGIQLFDRILLLFKPPKYHPDVPYVKRVKTWRMHLFTGIQIICLAVLWVVKSTPASLALPFVLILTVPLRRVLLPLIFRNVELQCLDADDAKATFDEEEGRDEYDEVAMPV

Variants of: B1
Details: Homo sapiens, reversible: No, structure 1HYN, whole UniProt chain shown; for denaturant midpoint (higher = more stable): 24 °C, Urea, Fluorescence, sodium phosphate sodium borate 50 mM 50 mM, sodium chloride 70 mM; for Tm / change of melting temperature, mutant - wild type (higher = more stable): Thermal, sodium phosphate 10 mM
[1] = pH 7, CD, sodium fluoride 50 mM
[2] = pH 7.5, DSC, sodium chloride 50 mM

Variant	denaturant midpoint (higher = more stable) (pH 7)	Tm [1]	change of melting temperature, mutant - wild type (higher = more stable) [1]	Tm [2]	change of melting temperature, mutant - wild type (higher = more stable) [2]
P327R	4.56 M	64 °C	-5 °C	–	–
E40K	4.73 M	–	–	64.9 °C	-1.3 °C
K56E	–	67.7 °C	-1.3 °C	66.5 °C	0.3 °C
G130R	4.85 M	68.7 °C	-0.3 °C	65.5 °C	-0.7 °C
